T1: human IL-23 (human, UniProt Q9NPF7 20-189; P29460 23-328)
T1 construct: Heterodimer p19/p40; in the ELISA captured on the plate through a biotinylated anti-p40 antibody (clone C8.6); also called cytokine IL-23 (eBioscience, 34-8239-85)
T1 sequence (looked up) 1: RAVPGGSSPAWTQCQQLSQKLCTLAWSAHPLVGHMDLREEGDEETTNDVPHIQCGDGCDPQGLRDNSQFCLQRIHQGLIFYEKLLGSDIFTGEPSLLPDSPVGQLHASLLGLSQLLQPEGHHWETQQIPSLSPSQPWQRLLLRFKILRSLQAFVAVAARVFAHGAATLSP
T1 sequence (looked up) 2: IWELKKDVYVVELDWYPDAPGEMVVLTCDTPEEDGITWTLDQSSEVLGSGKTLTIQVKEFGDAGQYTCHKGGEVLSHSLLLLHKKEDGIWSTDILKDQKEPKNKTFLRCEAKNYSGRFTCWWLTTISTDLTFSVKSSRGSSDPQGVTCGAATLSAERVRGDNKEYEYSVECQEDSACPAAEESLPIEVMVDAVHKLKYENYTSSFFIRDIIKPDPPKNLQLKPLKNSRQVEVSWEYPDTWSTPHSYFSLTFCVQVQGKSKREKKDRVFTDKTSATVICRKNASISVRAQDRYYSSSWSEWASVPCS

T2: human Flt3L (human, UniProt P49771 27-160, limits assumed)
T2 construct: Biotinylated form used in biopanning and phage ELISA; unlabelled in ITC and crystallography; also called hFlt3L; Flt3 ligand
T2 sequence (looked up): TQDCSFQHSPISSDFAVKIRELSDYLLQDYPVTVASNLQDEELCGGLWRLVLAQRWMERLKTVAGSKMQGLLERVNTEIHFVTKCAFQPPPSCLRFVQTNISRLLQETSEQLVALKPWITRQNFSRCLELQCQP

B1: SEQ ID NO 104 (designed binder)
chain: GSIEQIQKNIAYIQERIATIQKKIYRMTGGSGGSGGGGSGGSGGGSIEQIQKQIAAIQKQIAAIQKQIYAMTGSGGGGSGGSGGGGSGGSIEQIQKQIGAIAEQILAIVKQIRAMTP
notes: Alphabody, AC11b library clone
B2: SEQ ID NO 103 (designed binder)
chain: GSIEQIQKPIASIQELIAMIQKAIYWMTGGSGGSGGGGSGGSGGGSIEQIQKQIAAIQKQIAAIQKQIYAMTGSGGGGSGGSGGGGSGGSIEQIQKQIVAISEQIMAIIKQIGAMTP
notes: as for B1
B3: SEQ ID NO 122 (designed binder)
chain: GSIEQIQKRIAPIQESIAGIQKRIYRMTGGSGGSGGGGSGGSGGGSIEQIQKQIAAIQKQIAAIQKQIYAMTGSGGGGSGGSGGGGSGGSIEQIQKQIRAITEQIGAILKQIFAMTP
notes: as for B1
B4: SEQ ID NO 95 (designed binder)
chain: GSIEQIQKPIALIQERIATIQKLIYGMTGGSGGSGGGGSGGSGGGSIEQIQKQIAAIQKQIAAIQKQIYAMTGSGGGGSGGSGGGGSGGSIEQIQKQISAIAEQILAISKQIWAMTP
notes: as for B1
B5: SEQ ID NO 102 (designed binder)
chain: GSIEQIQKIIASIQEPIARIQKGIYRMTGGSGGSGGGGSGGSGGGSIEQIQKQIAAIQKQIAAIQKQIYAMTGSGGGGSGGSGGGGSGGSIEQIQKQIGAIAEQILAIFKQIRAMTP
notes: as for B1
B6: SEQ ID NO 107 (designed binder)
chain: GSIEQIQKPIARIQETIAIIQKTIYRMTGGSGGSGGGGSGGSGGGSIEQIQKQIAAIQKQIAAIQKQIYAMTGSGGGGSGGSGGGGSGGSIEQIQKQITAIREQIRAIWKQIPAMTP
notes: as for B1
B7: SEQ ID NO 96 (designed binder)
chain: GSIEQIQKWIACIQECIAGIQKEIYIMTGGSGGSGGGGSGGSGGGSIEQIQKQIAAIQKQIAAIQKQIYAMTGSGGGGSGGSGGGGSGGSIEQIQKQIRAISEQIYAIIKQISAMTP
notes: as for B1
B8: SEQ ID NO 114 (designed binder)
chain: GSIEQIQKRIARIQEPIAGIQKRIYMMTGGSGGSGGGGSGGSGGGSIEQIQKQIAAIQKQIAAIQKQIYAMTGSGGGGSGGSGGGGSGGSIEQIQKQIRAIAEQIVAIAKQIVAMTP
notes: as for B1
B9: SEQ ID NO 99 (designed binder)
chain: GSIEQIQKPIAEIQEIIARIQKKIYIMTGGSGGSGGGGSGGSGGGSIEQIQKQIAAIQKQIAAIQKQIYAMTGSGGGGSGGSGGGGSGGSIEQIQKQISAIGEQIFAIVKQIYAMTP
notes: as for B1
B10: SEQ ID NO 105 (designed binder)
chain: GSIEQIQKRIARIQEKIAWIQKPIYQMTGGSGGSGGGGSGGSGGGSIEQIQKQIAAIQKQIAAIQKQIYAMTGSGGGGSGGSGGGGSGGSIEQIQKQIRAIREQIGAILKQIKAMTP
notes: as for B1
B11: SEQ ID NO 65 (designed binder)
chain: GSIEQIQKTIAKIQERIAWIQKVIYAMTGGSGGSGGGSIEQIQKQIAAIQKQIAAIQKQIYAMTGSGGGGSGGSIEQIQKQIKAISYQIIAIMRQILAMTP
notes: Alphabody, AC12 library clone
B12: SEQ ID NO 73 (designed binder)
chain: GSIEQIQKFIASIQECIASIQKVIYAMTGGSGGSGGGSIEQIQKQIAAIQKQIAAIQKQIYAMTGSGGGGSGGSIEQIQKQIGAIAAQIIAIVEQIVAMTP
notes: Alphabody, AC12 library clone
B13: SEQ ID NO 77 (designed binder)
chain: GSIEQIQKGIAAIQEWIATIQKRIYAMTGGSGGSGGGSIEQIQKQIAAIQKQIAAIQKQIYAMTGSGGGGSGGSIEQIQKQIRAITIQIIAIIQQIWAMTP
notes: Alphabody, AC12 library clone
B14: SEQ ID NO 67 (designed binder)
chain: GSIEQIQKVIAWIQESIASIQKRIYAMTGGSGGSGGGSIEQIQKQIAAIQKQIAAIQKQIYAMTGSGGGGSGGSIEQIQKQIQAIANQITAIVRQIIAMTP
notes: Alphabody, AC12 library clone
B15: SEQ ID NO 74 (designed binder)
chain: GSIEQIQKKIAYIQEMIALIQKGIYAMTGGSGGSGGGSIEQIQKQIAAIQKQIAAIQKQIYAMTGSGGGGSGGSIEQIQKQISAIAAQISAIIKQIMAMTP
notes: Alphabody, AC12 library clone
B16: SEQ ID NO 71 (designed binder)
chain: GSIEQIQKPIAAIQEKIARIQKRIYAMTGGSGGSGGGSIEQIQKQIAAIQKQIAAIQKQIYAMTGSGGGGSGGSIEQIQKQIMAINRQILAILRQILAMTP
notes: Alphabody, AC12 library clone
B17: SEQ ID NO 70 (designed binder)
chain: GSIEQIQKCIAFIQERIAGIQKRIYAMTGGSGGSGGGSIEQIQKQIAAIQKQIAAIQKQIYAMTGSGGGGSGGSIEQIQKQIFAIGKQIFAIVKQILAMTP
notes: Alphabody, AC12 library clone
B18: hFlt3L_cl4 (designed binder)
chain: HMSIEEIQKQIAAIQKQIAAIQKQIYAMTGGSGGGSGGGSGGGSGMSIEEIQKQIAAIQKQIAAIQKQIYAMTGGSGGGSGGGSGGGSGMSIEEIQDQILNIQWQIHDIQQQIIVMTPGG

Key:
human IL-23 = target: T1, human IL-23; experiment: phage ELISA; IL-23 captured by anti-p40 antibody
Method: The set-up of the ELISA was as follows. Neutravidin was immobilized on the plate at a concentration of 0.010 mg/ml in PBS (0.100 ml) for 1 hour at room temperature (RT). Plates were washed 5 times with PBS containing 0.05% Tween 20 (PBST) for 5 min. Subsequently, 0.1 ml Biotinylated anti-p40 antibody (100 nM) was added to the plates in PBS containing 0.1% BSA and incubated overnight at 4° C. or at RT for 1 hour. After incubation, plates were washed 5 times with PBST and blocked with PBS containing 0.1% BSA and 0.5% gelatin (0.120 ml/well) for at least 1 hour at room temperature or overnight at 4° C. After washing 5 times with PBST, 100 nM IL-23 (target) was added to 0.1 ml PBS, 0.1% BSA. For individual negative controls no IL-23 was added (background).
In the meantime, the bacteria plates were centrifuged at 1700 rpm for 10 min to pellet the bacteria. Plates with the immobilized IL-23 were washed 5 times with PBST and 0.050 ml of PBS with 0.2% BSA were added to the plate together with 0.050 ml of the bacterial culture supernatant containing phage. Plates were incubated for 1 to 1.5 hours at room temperature while shaking. Shaking of the plates enhanced the ELISA signals.

human Flt3L [1] = target: T2, human Flt3L; experiment: isothermal titration calorimetry, 37 C, triplicate; hFlt3L dimer in the cell, Alphabody in the syringe
Method: (§1) The binding of Alphabody hFlt3L_cl4 to the target hFlt3L was tested by isothermal titration calorimetry (ITC) in order to determine its dissociation constant (KD), thermodynamic parameters (ΔH, ΔS) and binding stoichiometry. Prior to the measurements, Alphabody and target samples were dialyzed against 20 mM HEPES buffer containing 150 mM NaCl, pH 7.4. The ITC measurements were performed in triplicate at a temperature of 37° C. In each experiment, hFlt3L, which exists as a stable dimer in solution, was loaded into the cell (at concentrations 3.0 μM, 6.5 μM and 7.0 μM of hFlt3L dimer, respectively) and hFlt3L_cl4 was loaded in the syringe (at concentrations of 41.35 μM, 89.62 μM and 89.62 μM, respectively). […] This implies that, since the concentrations of hFlt3L were given for the dimeric complex (hFlt3L)₂, only one hFlt3L_cl4 Alphabody binds to one hFlt3L dimer.

human Flt3L [2] = target: T2, human Flt3L; experiment: isothermal titration calorimetry, 37 C, triplicate
Method: as §1

Binder	binding result (human IL-23)	further results
B1	binds	–
B2	binds	–
B3	binds	–
B4	binds	–
B5	binds	–
B6	binds	–
B7	binds	–
B8	binds	–
B9	binds	–
B10	binds	–
B11	binds	–
B12	binds	–
B13	binds	–
B14	binds	–
B15	binds	–
B16	binds	–
B17	binds	–
B18	–	Kd (human Flt3L [1]): 202 nM; Ka (human Flt3L [2]): 4.95e+06 M⁻¹; ΔG (human Flt3L [2]): -9.5 kcal/mol; ΔH (human Flt3L [2]): -16.6 kcal/mol; ΔS (human Flt3L [2]): -22.9 cal/(mol·K)

Source: US20140057830A1 (COMPLIX, published 2014)
